Experimental data: patent US20070275898

Target: β subunit of DNA polymerase III of Escherichia coli (UniProt P0A988)
Sequence (P0A988 whole entry): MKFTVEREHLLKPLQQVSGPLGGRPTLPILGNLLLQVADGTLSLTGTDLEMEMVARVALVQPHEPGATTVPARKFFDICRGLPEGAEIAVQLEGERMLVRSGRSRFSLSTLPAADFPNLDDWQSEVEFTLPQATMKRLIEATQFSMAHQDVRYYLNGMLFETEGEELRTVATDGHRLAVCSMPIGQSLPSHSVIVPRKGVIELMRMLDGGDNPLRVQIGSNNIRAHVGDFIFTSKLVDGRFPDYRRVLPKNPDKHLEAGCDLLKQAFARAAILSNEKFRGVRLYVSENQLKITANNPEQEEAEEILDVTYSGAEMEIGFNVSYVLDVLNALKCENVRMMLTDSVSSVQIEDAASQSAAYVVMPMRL

## Pol IVD5 mutant of Pol IV lacking the 5 C-terminal amino-acids
  growth rate (OD 600 nm) of E. coli on IPTG-induced expression: a clear growth inhibition was observed for the culture expressing the wild type Pol IV protein compared to the one expressing the mutant protein
